Reference: the supplement of paper PMC12042874
± gives the uncertainty stated by the source.

Test: amyloid nucleation score (Sup35N fusion, yeast selection) (log enrichment); library NNK2; higher = more nucleation; inactive = no reads after selection
Procedure, shortened: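 The nucleation score equals the log enrichment of output over input reads from DiMSum, centred on the mode score of non-aggregating sequences. It was computed only for sequences with 100 or more input reads. The reads came from Illumina sequencing of plasmid inserts from psi-negative yeast expressing Sup35N fused to peptides of 20 random codons, induced with 100 μM copper sulfate for 24 hours and grown 7 days at 30°C without adenine and uracil.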

Substance | amyloid nucleation score
YLGAGPSNILCHPFISAGSN | inactive
CHSRLLEYGENCNRIEYCLC | -0.459 ± 0.27
HLTAYCMSTHRQACDVDFDF | -0.067 ± 1.1
HLASFFSSVSYSSDLAYSGT | -1.02 ± 0.78
SWCLKRRTPHFVQVYHRNND | -0.095 ± 0.26
CLQFLSRYRVWPSHSFWGEY | 3.68 ± 0.07
FAGWIYGCTDRMVCLCSGGF | inactive
LLYHVGSTMGKPIYN | -0.669 ± 1
RVVGPFFMVFVLTDMGFWVT | inactive
GVIRILWDECRTSDYFGCGT | 0.047 ± 0.26
LFSCGKSMQLVMWYGLSFCG | 0.306 ± 0.37
VRNSCSTLLYASVESVFWI | 3.28 ± 0.048
GDFVGMLYNRCGHHMVIILT | -0.731 ± 0.35
AFCTKCASMRAILRGGGLVW | -0.109 ± 0.76
EGLRVEMCYGKNVSFMIGSY | 5.727 ± 0.049
VRMSSRRS | 1.24 ± 0.36
TGFNRCGSRWWLLVSNVKLV | -0.388 ± 0.54
NFAQWW | 0.443 ± 0.8
DQLVQGYGNTGWQLGYRMAG | 5.35 ± 0.056
LCWLATRVLSSNDSLYENME | 3.65 ± 0.071
FTYLIEARG | 1.02 ± 0.41
VTCCVTSEWVGFLDWWSDRQ | 10.13 ± 0.043
NDMVRAISRKGIVSIHRRTR | 0.724 ± 0.45
ENLKCEPLGRVRLKDHVYVV | 0.228 ± 0.27
RFIMSRYALEGAESTLMKHN | 3.53 ± 0.1

Substance | amyloid nucleation score
LTLHAVWI | -0.022 ± 0.27
GSGSVAEIMRNVFLVCSW | -0.115 ± 0.34
DICNWHLYDNCLSICSGYR | 0.951 ± 0.81
GCHSWSNLGEWCCYIYKMVI | -1.14 ± 0.78
FYPAEFYGKGLVDRTLFFIC | 0.12 ± 0.18
IFGFGL | 2.85 ± 0.2
YYDLRAATESDVRHGTADHR | 0.195 ± 0.37
HDRVIRQN | 0.084 ± 0.26
ICGCCARIHNYNISVSACLT | 4.3 ± 0.052
GGMVVPGKYRDRGY | -0.227 ± 0.26
PEYPVQIYMSMDL | -1.33 ± 0.78
VAPTLYLVCRIIRPNPNSYY | -0.228 ± 0.53
SHWLHGFSH | inactive
RMVVVVSKRY | 1.73 ± 0.17
SMRYDRDNHKHPFNIEAMRY | -0.096 ± 0.46
KFIPLINIRTQL | inactive
YAPGVLLSSMNDMAEYKGGI | -0.14 ± 0.28
FLIRDLAMHSSCSGSAIMIT | -0.713 ± 0.37
KQLMRGIWDRG | -0.217 ± 0.79
AYRSDCIRHGGPFAGYNICI | 0.044 ± 1.1
PCTMDYGVPRT | 0.585 ± 0.66
DRGYKSYGG | 0.775 ± 0.74
SLYVGFNRFFIRPVCCEVRG | -0.608 ± 1.1
ESNMSKLAFRRDTVF | inactive
SLQFVGYYFPFNRVCARSGA | -0.913 ± 0.45

Substance | amyloid nucleation score
IDVGYIYGMVCWQTG | 4.08 ± 0.083
KYNQPIMNSSSRGADCGCVR | 4.16 ± 0.07
MSILTCVPGTNIINSQW | inactive
RIGLMNL | 3.38 ± 0.11
LVFTCGWSDTRE | 5.08 ± 0.089
TCYTTSVRNSTS | 0.082 ± 0.36
NSNFRLTCTFSSMHYKLARG | 2.9 ± 0.21
FFNLNYMGFHSDIGSLIYPC | inactive
YSHATFSPASNSYQKG | 0.146 ± 0.56
MHPVANSGNSEHMFSMLY | 3.48 ± 0.09
GWESGALWVANFLSVRQA | 0.19 ± 0.56
FMSRTWLAYFTCKMLHGLLR | 0.863 ± 0.41
NLDGCTVIS | 0.774 ± 0.51
SIHDQLGHYVFIV | -1.16 ± 0.62
MKVPVRIRWVPLFSDFTYQV | -0.736 ± 0.36
ISTMSGPFVSRLWYSAYNTA | -0.345 ± 0.64
CVMMSQAFF | 5.22 ± 0.084
GFTLEAKDWSTG | 0.778 ± 0.43
LQASIIAMVRGRTNDSFLED | 2.7 ± 0.21
PSGFVVLGSLCGMIFVRVTK | -0.974 ± 0.49
WNAALKYKAHVGIDVSRCVP | 0.535 ± 0.33
KWSFF | 4.34 ± 0.081
VFQSDECVFLCSN | -0.561 ± 0.55
FMIMNYNQLCINRCLNGGRV | 9.059 ± 0.044
IANWSKYSASTCLVMTHAMA | -0.302 ± 0.28

Substance | amyloid nucleation score
HSMAWNVG | inactive
SPFIRHLNGSICRDNYFYVG | 3.03 ± 0.063
VATGLRAWWWTGKEEVGLVS | 1.69 ± 0.24
INTSELNVFRS | inactive
LNQNPLFTN | -0.11 ± 0.76
PWVNRCKELCMFVLGVDRGG | -0.588 ± 1.1
VMPIFNYWV | 0.121 ± 0.3
RRALIWIAIHECIRTTPHLL | -0.434 ± 0.76
YEYVSYCVSDFRYLLQTV | 0.436 ± 0.66
MLCCLCMMVCDR | 8.673 ± 0.032
NCKMVMIGCDRNYL | -1.37 ± 1.1
CCVEPVVRDVEVKIRSVVMN | 0.123 ± 0.56
DYYRPIIGH | -0.407 ± 0.28
LVHYFICHVPFLIFRYDKVT | inactive
GRKLMWSRF | 0.004 ± 0.45
LQHYDLGSCSCRWVLVTSDK | 0.584 ± 0.22
SLSVSTAVIVITLTNGEFIG | 2.64 ± 0.1
SFWISVGLWFWLGEYMGRNE | 2.17 ± 0.12
GVGHFFLIQINKMCPHMRMA | 2.98 ± 0.13
SYWSLRLFCFQLCLDHYRNG | 2.74 ± 0.21
RVSESLPSTD | -0.219 ± 0.47
TVSHDTGFGRNFFHVLLLS | -0.012 ± 1.1
CTRVLW | -0.201 ± 0.32
LLIINIEMYRCNRLLYIDNN | 3.15 ± 0.097
WLLKFSVGLNFFSEFNVLRC | -1.43 ± 0.75

Substance | amyloid nucleation score
SVRMVFIGNLSRGNWSALWS | 7.627 ± 0.037
FTKSKWLWSRAAFLRIDRW | 0.799 ± 0.74
YCRMYSRNVDGVWHTISKLD | 0.108 ± 0.42
AWDRDVNDENLVSIYMCRKL | -0.233 ± 0.32
LKNNNQETGIEFYIFREHRD | 4.22 ± 0.047
YFWFYTV | -0.691 ± 0.34
LLSSFIALSWCWRWFKHSS | 4.972 ± 0.045
RLLRQGDFGVTENRFLFRDI | -0.502 ± 0.79
IYREVYAL | inactive
GINRKDKMSKCTDLVVFCLG | -0.076 ± 0.33
GPWAAVVRGFCPKGDKRSCG | -0.304 ± 0.41
GHIMKCGATRQYHCEDP | -0.614 ± 0.79
HAACCASNLLWGRFFWSCAD | 2.74 ± 0.084
ASGVNFGT | -0.215 ± 0.45
WHFSRSWDPKFWRRAHSWWE | 0.276 ± 0.5
KYNSCSYEGSRRILFSGACR | -0.699 ± 0.45
ELSHSLSIKATVEGS | 0.279 ± 0.56
YCVSPELDWTSIARGHTFNV | -0.509 ± 1.1
NGTSLTMTYIRKLAFRGLEK | 0.215 ± 0.26
VEMAFRFQRSKSCLSLDDFV | inactive
ERKHTFHAVGHGLQESLVRF | -0.212 ± 0.45
HKWWSAPGSLAS | -0.038 ± 0.79
FVFYSEEGLGHDLSNFTGGI | inactive
VWTES | 1.83 ± 0.25
DLFGCFVNCRSRL | 2.89 ± 0.092

Substance | amyloid nucleation score
GVCVI | 0.775 ± 0.4
YPKSLV | -0.698 ± 1.1
NISMTTWW | 4.71 ± 0.11
FGTKHFVICSL | -0.989 ± 0.76
SSIWPIPFYILGVFKVSSVW | inactive
SGRHVNVLYYNFNGPDDQFK | 6.866 ± 0.029
FGYMCEAPHRVDFRLFELLQ | inactive
VRRMRG | 1.18 ± 0.42
DSLINFRLKVPTMLCMFCWI | 0.401 ± 0.62
QWQGQHLT | -1.4 ± 1
MLLSCYFVVNE | 6.37 ± 0.072
DLEYF | -1.56 ± 0.54
MVLIYRLCQSLRLRHGVGVK | 4.33 ± 0.1
LTEDTMFG | -0.573 ± 0.76
EFMYKQCRYIVTPYGLVVSR | -0.557 ± 1.1
SRLVVRN | inactive
NISCNSGSPGSNMTGCQESS | 0.767 ± 0.8
IVHQGLLIRPIDGVGRLTLS | 4.05 ± 0.1
ACKRGTFQWNACLSPGSCGR | 0.902 ± 0.36
STLVDGGTGYMCYFFAWHQS | inactive
IFNRSASYLAFFHKG | 4.3 ± 0.079
HSTVSLQSGRMNVVASGVIH | 1.62 ± 0.11
ASGDGLNFWPFRSPTDAQRA | 0.775 ± 0.5
VQFPSVMFICRIARRRTY | 0.746 ± 0.67
FLLPGCSLIFFYCSGCSMV | 5.014 ± 0.031

Substance | amyloid nucleation score
WLLVDYAASCRGKWCHEMHG | 0.284 ± 0.19
LTPEFSVCGCRTEG | 2.65 ± 0.072
DYKDYNLCGITHMESF | -0.442 ± 1
IKKGRWAYGPSLVCKNAMRE | 0.799 ± 0.74
YVAAGLWVMWTGALKMRQAG | 0.954 ± 0.66
YLNGLTYWDIMLPWAII | -0.324 ± 1.1
RGVCLNNLMWGTLGTRKALL | -0.797 ± 1
KHMYYYCLYANELQVAVEMN | -0.235 ± 0.45
IPYYIDKKQSKMCNGFWS | 0.572 ± 0.57
RVQDRYILNSVRQHHGAGQR | -0.14 ± 1.1
LMLLYIRSKYGEFVWIPKVH | -0.021 ± 0.54
CSYVAGETSLERSHCILGWS | 0.161 ± 0.34
RVFMEH | -0.047 ± 1.1
RSIRCVYKF | -0.465 ± 0.29
LCYMGRVA | 0.224 ± 0.34
FQVSCVHQVPRAAGVADGAV | 0.375 ± 0.21
CRIVKRVRAADRRMWIMCLG | -0.256 ± 0.37
LTATLAFLVSCFYCSL | 6.95 ± 0.028
NQLLTVSWYSL | 2.76 ± 0.091
VVGFSMFYKWDMNSMVSRMS | 2.27 ± 0.084
GAEFTFGLFTYEFGIGQG | 0.285 ± 0.57
NSDCEVPFTWFVMLIGAPGG | -0.393 ± 0.76
